Test results reported in US20160185837A1 (AstraZeneca / MedImmune, published 2016).
Numbering of substitutions follows the chain as printed.

B1: IP213 (Fc fusion)
chain: YSEGTFTSDYSKLLEEEAVRLFIEWLLAGGAAAGGSGSTASSGSGSATGGGGAATHTCPPCPAPEF
B2: IP324 (Fc fusion)
chain: YSEGTFTSDYSKLLEEEAVRLFIEWLVKGPGGGGGSGGGGSGGGGSGGGGSGGGGSGGGGSGGGGSA
B3: IP322 (Fc fusion)
chain: YSEGTFTSDYSKLLEEEAVRLFIEWLVKGPGGGGGSGGGGSGGGGSGGGGSGGGGSA
B4: IP297 (Fc fusion)
chain: YSEGTFTSDYSKLLEEEAVRLFIEWLLAGGGGGGGGGGGGGGGGGGGGGGGGGACPPC
B5: IP300 (Fc fusion)
chain: B4 chain with G30A, G31P, G32P
B6: IP296 (Fc fusion)
chain: YSEGTFTSDYSKLLEEEAVRCFIEWLVKGGPSSGAPPCSGGGGGGGGGGGGGGGGGGGGGGGGACPPC
B7: IP294 (Fc fusion)
chain: YSEGTFTSDYSKLLEEEAVRLFICWLVCGPGGGGGGGGGGGGGGGGGGGGACPPC
B8: IP295 (Fc fusion)
chain: YSEGTFTSDYSKLLEEEAVRLFIEWLLAGGPSSGAPPPSGGGGGSGGGGSGGGGSGGGGSATHTCPPC
B9: IP323 (Fc fusion)
chain: YSEGTFTSDYSKLLEEEAVRLFIEWLVKGPGGGGGSGGGGSGGGGSGGGGSGGGGSGGGGSA

The binders below were run against T1, mouse GIP receptor (mouse, UniProt Q0P543 19-460) (assay: cell-based or functional assay).
T1 sequence (looked up): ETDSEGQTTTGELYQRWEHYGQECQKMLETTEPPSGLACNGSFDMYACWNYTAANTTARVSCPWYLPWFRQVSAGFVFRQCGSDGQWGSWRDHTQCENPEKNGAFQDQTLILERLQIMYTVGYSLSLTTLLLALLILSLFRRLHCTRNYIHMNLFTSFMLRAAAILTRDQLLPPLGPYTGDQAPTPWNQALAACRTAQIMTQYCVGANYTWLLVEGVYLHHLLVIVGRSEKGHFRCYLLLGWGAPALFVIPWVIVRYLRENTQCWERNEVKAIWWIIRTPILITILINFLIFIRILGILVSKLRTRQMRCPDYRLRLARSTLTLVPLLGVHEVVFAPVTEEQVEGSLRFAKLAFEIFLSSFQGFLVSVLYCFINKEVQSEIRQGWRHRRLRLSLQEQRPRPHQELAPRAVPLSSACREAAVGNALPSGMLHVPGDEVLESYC
For B1, the “cAMP EC50” value was 2.5 nM. B2 was tested, and the “cAMP EC50” value was 240 nM and the “cAMP EC50, Batch 2” value was 67.5 nM. In the case of B3, the “cAMP EC50” value is reported as 8.3 nM. For B4, the “cAMP EC50” value was 8.1 nM. With B5 the “cAMP EC50” value was 0.9 nM. In the case of B6, the “cAMP EC50” value is reported as 110 nM, the “cAMP EC50, Batch 2” value is reported as 55 nM and the “cAMP EC50, Batch 4” value is reported as 65 nM. With B7 the “cAMP EC50” value was over 6800 nM. In the case of B8, the “cAMP EC50” value is reported as 0.66 nM, the “cAMP EC50, Batch 2” value is reported as 1.2 nM and the “cAMP EC50, Batch 3” value is reported as 571 pM. B9 was tested, and the “cAMP EC50” value was 65 nM.

The binders below were run against T2, human GIP receptor (human, UniProt P48546 22-466) (assay: cell-based or functional assay).
T2 sequence (looked up): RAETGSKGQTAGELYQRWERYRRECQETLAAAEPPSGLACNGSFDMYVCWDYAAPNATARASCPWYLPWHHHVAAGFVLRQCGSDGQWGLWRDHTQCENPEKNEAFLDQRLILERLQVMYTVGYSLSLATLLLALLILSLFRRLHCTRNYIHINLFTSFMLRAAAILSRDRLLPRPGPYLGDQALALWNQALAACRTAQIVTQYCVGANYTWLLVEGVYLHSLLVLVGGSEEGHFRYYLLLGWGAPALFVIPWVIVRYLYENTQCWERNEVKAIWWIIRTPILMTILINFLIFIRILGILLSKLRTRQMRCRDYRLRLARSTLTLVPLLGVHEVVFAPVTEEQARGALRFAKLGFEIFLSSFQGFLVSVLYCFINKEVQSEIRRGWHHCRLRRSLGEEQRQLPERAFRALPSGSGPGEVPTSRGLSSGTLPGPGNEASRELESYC
For B1, the “cAMP EC50” value was 5.9 pM. With B2 the “cAMP EC50” value was 37 pM and the “cAMP EC50, Batch 2” value was 16 pM. B3 was tested, and the “cAMP EC50” value was 26 pM. In the case of B4, the “cAMP EC50” value is reported as 15 pM. B5 was tested, and the “cAMP EC50” value was 13 pM. For B6, the “cAMP EC50” value was 18 pM, the “cAMP EC50, Batch 2” value was 21 pM and the “cAMP EC50, Batch 3” value was 14 pM. The “cAMP EC50, Batch 4” value was 11 pM. In the case of B7, the “cAMP EC50” value is reported as 1300 pM. With B8 the “cAMP EC50” value was 4.3 pM, the “cAMP EC50, Batch 2” value was 12 pM and the “cAMP EC50, Batch 3” value was 8.6 pM. In the case of B9, the “cAMP EC50” value is reported as 17 pM.

The binders below were run against human GLP-1 receptor (human, UniProt P43220 24-463) (assay: cell-based or functional assay).
B1 was tested, and the “cAMP EC50” value was 87 pM. With B2 the “cAMP EC50” value was 400 pM and the “cAMP EC50, Batch 2” value was 140 pM. B3 was tested, and the “cAMP EC50” value was 290 pM. For B4, the “cAMP EC50” value was 190 pM. With B5 the “cAMP EC50” value was 210 pM. B6 was tested, and the “cAMP EC50” value was 570 pM, the “cAMP EC50, Batch 2” value was 390 pM and the “cAMP EC50, Batch 3” value was 370 pM. For the same binder, the “cAMP EC50, Batch 4” value was 290 pM. For B7, the “cAMP EC50” value was 27000 pM. With B8 the “cAMP EC50” value was 91 pM, the “cAMP EC50, Batch 2” value was 140 pM and the “cAMP EC50, Batch 3” value was 150 pM. With B9 the “cAMP EC50” value was 200 pM.

What follows are binders tested against human glucagon receptor (human, UniProt P47871 26-477) (assay: cell-based or functional assay).
In the case of B1, the “cAMP EC50” value is reported as 18 nM. In the case of B2, the “cAMP EC50” value is reported as 470 nM and the “cAMP EC50, Batch 2” value is reported as 120 nM. B3 was tested, and the “cAMP EC50” value was 260 nM. In the case of B4, the “cAMP EC50” value is reported as 31 nM. B5 was tested, and the “cAMP EC50” value was 21 nM. In the case of B6, the “cAMP EC50” value is reported as over 1120 nM, the “cAMP EC50, Batch 2” value is reported as over 784 nM and the “cAMP EC50, Batch 3” value is reported as over 4490 nM. The “cAMP EC50, Batch 4” value was 6.7 µM. B7 was tested, and the “cAMP EC50” value was over 6810 nM. For B8, the “cAMP EC50” value was 41 nM, the “cAMP EC50, Batch 2” value was 32 nM and the “cAMP EC50, Batch 3” value was 23 nM. For B9, the “cAMP EC50” value was 190 nM.

Each binder was assayed against T3, rat GIP receptor (rat, UniProt P43219 19-455) (assay: cell-based or functional assay).
T3 sequence (looked up): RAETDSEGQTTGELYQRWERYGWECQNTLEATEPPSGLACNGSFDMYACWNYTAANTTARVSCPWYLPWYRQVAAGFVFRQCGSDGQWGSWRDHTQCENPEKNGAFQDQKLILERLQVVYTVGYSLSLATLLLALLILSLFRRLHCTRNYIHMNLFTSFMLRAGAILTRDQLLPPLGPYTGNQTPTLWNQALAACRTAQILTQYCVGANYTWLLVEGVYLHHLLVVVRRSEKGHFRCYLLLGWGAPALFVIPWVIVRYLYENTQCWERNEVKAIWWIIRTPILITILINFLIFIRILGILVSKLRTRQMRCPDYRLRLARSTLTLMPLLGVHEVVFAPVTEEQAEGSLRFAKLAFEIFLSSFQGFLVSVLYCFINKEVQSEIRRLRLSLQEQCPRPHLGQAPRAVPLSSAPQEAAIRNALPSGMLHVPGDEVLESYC
In the case of B1, the “cAMP EC50” value is reported as 54 pM. In the case of B2, the “cAMP EC50” value is reported as 140 pM and the “cAMP EC50, Batch 2” value is reported as 141 pM. For B3, the “cAMP EC50” value was 110 pM. B4 was tested, and the “cAMP EC50” value was 89 pM. With B5 the “cAMP EC50” value was 69 pM. In the case of B6, the “cAMP EC50” value is reported as 460 pM and the “cAMP EC50, Batch 4” value is reported as 140 pM. B7 was tested, and the “cAMP EC50” value was 100000 pM. For B8, the “cAMP EC50” value was 41 pM, the “cAMP EC50, Batch 2” value was 65.8 pM and the “cAMP EC50, Batch 3” value was 25 pM. In the case of B9, the “cAMP EC50” value is reported as 82 pM.

These binders were tested against T4, mouse GLP-1 receptor (mouse, UniProt O35659 22-463) (assay: cell-based or functional assay).
T4 sequence (looked up): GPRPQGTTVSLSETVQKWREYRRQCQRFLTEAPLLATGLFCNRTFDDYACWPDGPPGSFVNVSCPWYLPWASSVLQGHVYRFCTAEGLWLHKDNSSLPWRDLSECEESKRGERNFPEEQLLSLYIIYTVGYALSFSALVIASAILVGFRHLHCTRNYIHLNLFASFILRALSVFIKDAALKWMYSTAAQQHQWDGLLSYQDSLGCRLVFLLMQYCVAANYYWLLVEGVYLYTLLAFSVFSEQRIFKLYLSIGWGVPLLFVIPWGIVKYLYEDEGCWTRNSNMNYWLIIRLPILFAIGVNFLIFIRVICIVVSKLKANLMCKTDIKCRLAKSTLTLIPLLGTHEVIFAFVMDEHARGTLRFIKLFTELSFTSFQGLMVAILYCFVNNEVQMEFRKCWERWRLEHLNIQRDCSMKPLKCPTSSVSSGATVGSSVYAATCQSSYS
With B1 the “cAMP EC50” value was 820 pM. B2 was tested, and the “cAMP EC50” value was 720 pM and the “cAMP EC50, Batch 2” value was 391 pM. With B3 the “cAMP EC50” value was 410 pM. B4 was tested, and the “cAMP EC50” value was 820 pM. For B5, the “cAMP EC50” value was 940 pM. B6 was tested, and the “cAMP EC50” value was 1400 pM, the “cAMP EC50, Batch 2” value was 600 pM and the “cAMP EC50, Batch 4” value was 640 pM. With B7 the “cAMP EC50” value was 350000 pM. With B8 the “cAMP EC50” value was 350 pM, the “cAMP EC50, Batch 2” value was 241 pM and the “cAMP EC50, Batch 3” value was 340 pM. With B9 the “cAMP EC50” value was 340 pM.

These binders were tested against T5, rat GLP-1 receptor (rat, UniProt P32301 22-463) (assay: cell-based or functional assay).
T5 sequence (looked up): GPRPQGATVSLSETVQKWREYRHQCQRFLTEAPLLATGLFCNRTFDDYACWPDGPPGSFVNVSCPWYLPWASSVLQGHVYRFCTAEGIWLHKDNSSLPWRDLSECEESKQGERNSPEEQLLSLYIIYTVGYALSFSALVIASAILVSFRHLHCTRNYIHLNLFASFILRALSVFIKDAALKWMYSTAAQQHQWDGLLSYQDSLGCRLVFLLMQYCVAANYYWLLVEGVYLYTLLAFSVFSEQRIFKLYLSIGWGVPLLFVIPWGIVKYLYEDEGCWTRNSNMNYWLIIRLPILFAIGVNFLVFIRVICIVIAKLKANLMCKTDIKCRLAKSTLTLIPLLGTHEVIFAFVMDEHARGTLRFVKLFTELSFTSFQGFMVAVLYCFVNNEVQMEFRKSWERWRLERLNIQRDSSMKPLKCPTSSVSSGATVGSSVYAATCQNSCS
In the case of B1, the “cAMP EC50” value is reported as 87 pM. For B2, the “cAMP EC50” value was 40 pM and the “cAMP EC50, Batch 2” value was 36.3 pM. B3 was tested, and the “cAMP EC50” value was 25 pM. In the case of B4, the “cAMP EC50” value is reported as 28 pM. In the case of B5, the “cAMP EC50” value is reported as 27 pM. For B6, the “cAMP EC50” value was 55 pM, the “cAMP EC50, Batch 2” value was 28 pM and the “cAMP EC50, Batch 4” value was 27 pM. B7 was tested, and the “cAMP EC50” value was 7100 pM. B8 was tested, and the “cAMP EC50” value was 23 pM, the “cAMP EC50, Batch 2” value was 18 pM and the “cAMP EC50, Batch 3” value was 28.6 pM. In the case of B9, the “cAMP EC50” value is reported as 19 pM.
